# According to patent US20160185850A1 (ESBATECH AN ALCON BIOMEDICAL RESEARCH UNIT, published 2016):
# Substitutions are numbered along the chain they refer to. Names may count otherwise.
# B1: TB-A H_F70L/L72R (scFv)
# scFv: DIVMTQSPSSLSASVGDRVTLTCTASQSVSNDVVWYQQRPGKAPKLLIYSAFNRYTGVPSRFSGRGYGTDFTLTISSLQPEDVAVYYCQQDYNSPRTFGQGTKLEVKRGGGGSGGGGSGGGGSGGGGSQVQLVQSGAEVKKPGASVKVSCTASGYTFTHYGMNWVRQAPGKGLEWMGWINTYTGEPTYADKFKDRFTLSRETSASTVYMELTSLTSDDTAVYYCARERGDAMDYWGQGTLVTVSS
# notes: also called TB-A H70/72
# B2: TB-B L46 (scFv)
# scFv: DIVLTQSPSSLSASVGDRVTLTCTASQSVSNDVVWYQQRPGKAPKLLIYSAFNRYTGVPSRFSGSGSGTEFTLTISSLQPEDVAVYYCQQDYNSPRTFGQGTKLEVKRGGGGSGGGGSGGGGSGGGGSQVQLVQSGAEVKKPGASVKVSCTASGYSFTHYGMNWVRQAPGQGLEWMGWINTYTGEPTYADKFKDRVTLTRDTSIGTVYMELTSLTSDDTAVYYCARERGDAMDYWGQGTLVTVSS
# notes: Differs from TB-B only at position 46 of VL (R to L); also called TB-B R46L
# B3: TB-A H_F68L (scFv)
# scFv: B1 scFv with F196L, L198F, R200L
# B4: TB-A H_F70L (scFv)
# scFv: B1 scFv with R200L
# B5: TB-A H_F68V/F70L (scFv)
# scFv: B1 scFv with F196V, R200L
# B6: TB-A H_F68A (scFv)
# scFv: B1 scFv with F196A, L198F, R200L
# B7: TB-A H_M48L/F68I (scFv)
# scFv: B1 scFv with M176L, F196I, L198F, R200L
# B8: TB-A Linker_G2R H_F68L (scFv)
# scFv: B1 scFv with G110R, F196L, L198F, R200L
# B9: TB-A H_K43R/F68I (scFv)
# scFv: B1 scFv with K171R, F196I, L198F, R200L
# Molecular target: T1, recombinant human TNFα (human, UniProt P01375 77-233)
# T1 construct: also called hTNFα; tumour necrosis factor alpha
# Experiment: ELISA on recombinant human TNFα
# T1 sequence (P01375 77-233 limits assumed): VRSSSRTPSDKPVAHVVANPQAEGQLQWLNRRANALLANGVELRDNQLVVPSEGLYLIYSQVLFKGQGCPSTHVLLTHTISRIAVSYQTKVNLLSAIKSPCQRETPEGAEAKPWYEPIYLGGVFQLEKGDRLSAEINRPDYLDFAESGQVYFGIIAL
row,Binder,binding result
1,B1,binds

# Molecular target: T1, recombinant human TNFα
# Experiment: ELISA on recombinant human TNFα (FIG. 4A)
row,Binder,Kd
1,B2,~100 nM

# Molecular target: T1, recombinant human TNFα
# Experiment: cell-based or functional assay
Binder,"Relative potency: EC50X/EC50TB-A, KYM-1 cells","Relative potency: EC50X/EC50TB-A, L929 cells"
B3,1.5 ratio EC50X/EC50TB-A,1.32 ratio EC50X/EC50TB-A
B4,–,2.7 ratio EC50X/EC50TB-A
B5,–,1.28 ratio EC50X/EC50TB-A
B6,–,1.14 ratio EC50X/EC50TB-A
B7,1.6 ratio EC50X/EC50TB-A,1.1 ratio EC50X/EC50TB-A
B8,1.3 ratio EC50X/EC50TB-A,0.8 ratio EC50X/EC50TB-A
B9,1.5 ratio EC50X/EC50TB-A,1.37 ratio EC50X/EC50TB-A
